# Experimental data taken from patent US20180074053A1 (priority 2016, published 2018).
# Non-standard residues stand in square brackets, D forms with d. No end group written: not given here.
# What was measured:
# STC-1 cells = assay: GLP-1 secretion from STC-1 cells (ELISA); type: cell-based, mouse; settings: 2 hours, DMEM without serum and glucose; FIG. 3
# Method: The pathways and sites of action of H89 and U73122 are graphically represented in FIG. 2.
# Supernatants were collected for GLP-1 measurement. and the GLP-1 concentration was measured using a total GLP-1 (7-36 and 9-36) ELISA kit according to manufacturer's instruction (Alpco. Salem, N.H.).
# HUVEC cells = settings: 4 mM time course, 0.05-32.0 mM for 60 minutes; FIGS. 16, 17
# Method: Briefly, HUVEC cells, previously plated in 96-well plate, were washed and the media changed to DMEM with 3% FBS for overnight incubation and cell starvation. On the day of the experiment, the cells were incubated with DAF-FM diacetate (Molecular Probes, catalog #D23842) at the final concentration of 7-10 nM for 30 minutes. […] Every treatment was performed in triplicate. The fluorescence was detected starting at 10 min with exc/em of 495 nm/515 nm.
# The background signal (fluorescence signal from cells that were not loaded with dye) was subtracted from the other measurements.
# Briefly, HUVEC cells, previously plated in 96-well plate, were washed and the media changed to DMEM with 3% FBS for overnight incubation and cell starvation. On the day of the experiment, the cells were incubated with DAF-FM diacetate (Molecular Probes, catalog #D23842) at the final concentration of 7-10 nM for 30 minutes. […] Every treatment was performed in triplicate. The fluorescence was detected 60 minutes with exc/em of 495 nm/515 nm.
# C57BL/6J mice = assay: Oral glucose tolerance test (OGTT); type: in vivo, mouse
# Method: (§1) C57BL/6J mice were received from Jackson Laboratories at 4 weeks old and aged to 7 weeks and then grouped by body weight into 4 groups of 10. The mice were fasted overnight (12 hours) prior to the assay. Body weights and blood glucose (FreeStyle Lite glucometer) levels were determined. […] At 30, 60, 90, and 120 minutes glucose levels were measured using whole blood collected from the tip of the tail via needle puncture. Upon the final 120 min measurement, food was returned to the mice.
# Oral glucose tolerance tests (OGTTs) were performed as described in Example 1.
# as §1, with “puncture.” for “puncture. Upon the final 120 min measurement, food was returned to the mice.”
# as §1, with “puncture.” for “puncture. Upon the final 120 min measurement, food was returned to the mice.”
# NOP = NOP (UniProt P41146 1-370); assay: cell-based or functional assay
# Chain of NOP (P41146 whole entry): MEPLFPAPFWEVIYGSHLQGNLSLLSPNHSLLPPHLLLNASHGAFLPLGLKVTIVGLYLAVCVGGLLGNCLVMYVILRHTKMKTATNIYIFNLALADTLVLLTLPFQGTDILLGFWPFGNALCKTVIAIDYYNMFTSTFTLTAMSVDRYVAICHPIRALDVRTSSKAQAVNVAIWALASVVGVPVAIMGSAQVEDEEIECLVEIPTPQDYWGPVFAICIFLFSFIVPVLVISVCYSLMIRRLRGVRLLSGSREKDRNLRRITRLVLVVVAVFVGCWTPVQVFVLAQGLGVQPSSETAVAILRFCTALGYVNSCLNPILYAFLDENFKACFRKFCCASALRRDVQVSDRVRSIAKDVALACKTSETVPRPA
# NK2 = biological target: T1, NK2 (UniProt P21452 1-398); assay: cell-based or functional assay
# T1 sequence (looked up): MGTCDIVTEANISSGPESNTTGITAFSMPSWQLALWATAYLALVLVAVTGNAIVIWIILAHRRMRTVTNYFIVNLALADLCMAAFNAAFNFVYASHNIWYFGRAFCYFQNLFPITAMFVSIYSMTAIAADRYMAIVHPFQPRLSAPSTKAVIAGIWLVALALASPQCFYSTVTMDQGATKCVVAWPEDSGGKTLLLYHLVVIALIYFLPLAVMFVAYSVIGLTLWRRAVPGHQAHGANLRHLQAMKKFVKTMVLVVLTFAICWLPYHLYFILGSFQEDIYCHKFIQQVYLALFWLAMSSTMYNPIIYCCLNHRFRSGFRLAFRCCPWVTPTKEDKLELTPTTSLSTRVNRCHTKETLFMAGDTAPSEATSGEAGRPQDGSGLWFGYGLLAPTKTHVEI
# NK1 = NK1 (UniProt P25103 1-407); assay: cell-based or functional assay
# Chain of NK1 (P25103 whole entry): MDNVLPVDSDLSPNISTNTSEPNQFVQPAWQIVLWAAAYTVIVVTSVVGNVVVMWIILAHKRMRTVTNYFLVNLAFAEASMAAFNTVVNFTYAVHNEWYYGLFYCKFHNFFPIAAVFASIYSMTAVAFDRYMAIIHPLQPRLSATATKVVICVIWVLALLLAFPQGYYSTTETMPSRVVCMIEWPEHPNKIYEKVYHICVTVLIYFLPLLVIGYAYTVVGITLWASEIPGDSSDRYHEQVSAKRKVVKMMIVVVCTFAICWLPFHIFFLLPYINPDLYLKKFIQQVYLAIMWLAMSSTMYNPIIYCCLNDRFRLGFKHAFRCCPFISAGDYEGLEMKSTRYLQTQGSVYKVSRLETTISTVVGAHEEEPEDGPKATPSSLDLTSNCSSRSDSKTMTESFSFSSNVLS
# [1] = biological target: GPCR40, the free fatty acid receptor (human, UniProt O14842 1-300); assay: cell-based or functional assay
# Chain of GPCR40, the free fatty acid receptor (O14842 whole entry): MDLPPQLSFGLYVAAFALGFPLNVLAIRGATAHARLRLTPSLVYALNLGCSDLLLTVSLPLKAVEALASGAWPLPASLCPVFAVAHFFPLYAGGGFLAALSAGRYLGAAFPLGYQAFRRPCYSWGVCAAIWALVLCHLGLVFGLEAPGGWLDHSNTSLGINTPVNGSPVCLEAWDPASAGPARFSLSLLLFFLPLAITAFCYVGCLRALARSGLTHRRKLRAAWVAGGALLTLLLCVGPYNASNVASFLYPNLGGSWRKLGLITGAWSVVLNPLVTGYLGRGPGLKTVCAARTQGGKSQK
# MCHR2 = MCHR2 (UniProt Q969V1 1-340, limits assumed); assay: cell-based or functional assay
# Chain of MCHR2 (Q969V1 whole entry): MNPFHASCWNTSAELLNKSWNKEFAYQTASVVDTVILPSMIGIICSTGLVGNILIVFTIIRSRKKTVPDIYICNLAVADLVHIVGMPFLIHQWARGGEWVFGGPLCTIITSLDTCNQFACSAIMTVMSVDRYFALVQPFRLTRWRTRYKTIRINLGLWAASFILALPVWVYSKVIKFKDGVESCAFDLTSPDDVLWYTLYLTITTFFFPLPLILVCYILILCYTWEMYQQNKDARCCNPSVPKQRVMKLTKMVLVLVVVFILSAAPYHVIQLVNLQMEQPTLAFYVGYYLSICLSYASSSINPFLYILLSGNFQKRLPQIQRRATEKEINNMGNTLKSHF
# NMUR2 = NMUR2 (UniProt Q9GZQ4 1-415, limits assumed); assay: cell-based or functional assay
# Chain of NMUR2 (Q9GZQ4 whole entry): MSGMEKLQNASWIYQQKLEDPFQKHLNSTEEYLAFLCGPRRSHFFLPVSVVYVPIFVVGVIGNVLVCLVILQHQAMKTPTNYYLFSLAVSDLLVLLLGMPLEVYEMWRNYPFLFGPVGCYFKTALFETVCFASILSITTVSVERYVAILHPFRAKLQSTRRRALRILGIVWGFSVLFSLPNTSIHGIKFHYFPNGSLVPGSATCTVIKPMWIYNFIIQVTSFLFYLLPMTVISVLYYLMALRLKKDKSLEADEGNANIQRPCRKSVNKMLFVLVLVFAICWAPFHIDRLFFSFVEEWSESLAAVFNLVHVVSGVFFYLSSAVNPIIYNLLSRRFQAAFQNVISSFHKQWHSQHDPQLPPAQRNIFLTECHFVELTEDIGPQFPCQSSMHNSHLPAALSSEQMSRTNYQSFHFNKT
# MRGX1 = MRGX1 (UniProt Q96LB2 1-322, limits assumed); assay: cell-based or functional assay
# Chain of MRGX1 (Q96LB2 whole entry): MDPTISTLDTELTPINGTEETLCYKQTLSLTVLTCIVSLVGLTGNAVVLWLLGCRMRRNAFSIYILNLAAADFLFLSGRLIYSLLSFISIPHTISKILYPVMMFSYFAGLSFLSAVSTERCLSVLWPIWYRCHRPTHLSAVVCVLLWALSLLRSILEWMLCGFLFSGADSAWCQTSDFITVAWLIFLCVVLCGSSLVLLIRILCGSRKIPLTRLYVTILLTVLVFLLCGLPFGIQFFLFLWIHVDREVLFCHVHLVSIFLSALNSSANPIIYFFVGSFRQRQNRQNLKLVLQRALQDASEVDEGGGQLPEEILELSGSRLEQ
# [2] = biological target: GPCR 109a, the nicotinic acid receptor (human, UniProt Q8TDS4 1-363); assay: cell-based or functional assay
# Chain of GPCR 109a, the nicotinic acid receptor (Q8TDS4 whole entry): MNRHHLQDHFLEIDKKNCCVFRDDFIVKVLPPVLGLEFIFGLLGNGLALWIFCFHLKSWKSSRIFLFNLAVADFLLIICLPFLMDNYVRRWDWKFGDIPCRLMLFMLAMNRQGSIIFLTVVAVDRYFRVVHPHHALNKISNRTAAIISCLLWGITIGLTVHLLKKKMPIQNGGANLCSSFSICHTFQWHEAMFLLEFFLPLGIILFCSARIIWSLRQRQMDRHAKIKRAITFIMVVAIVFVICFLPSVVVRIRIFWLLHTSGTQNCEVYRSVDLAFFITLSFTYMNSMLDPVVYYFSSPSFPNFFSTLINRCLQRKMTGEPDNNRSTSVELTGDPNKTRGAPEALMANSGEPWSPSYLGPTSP
# NPBW1 = biological target: T2, NPBW1 (UniProt P48145 1-328); assay: cell-based or functional assay
# T2 sequence (looked up): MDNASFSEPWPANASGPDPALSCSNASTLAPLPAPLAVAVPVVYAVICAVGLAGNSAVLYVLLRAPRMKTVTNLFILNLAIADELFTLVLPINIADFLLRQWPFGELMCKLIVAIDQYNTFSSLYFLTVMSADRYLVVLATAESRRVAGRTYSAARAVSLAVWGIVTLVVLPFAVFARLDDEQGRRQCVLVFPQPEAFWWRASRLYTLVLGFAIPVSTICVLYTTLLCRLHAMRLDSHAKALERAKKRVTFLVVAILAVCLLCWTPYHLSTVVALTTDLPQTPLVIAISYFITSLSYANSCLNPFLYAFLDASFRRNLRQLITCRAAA
molecule,measurement,setting,value
CC(C)C[C@@H](NC(=O)CNC(=O)CN)C(=O)O,release of GLP-1 by STC-1 cells,STC-1 cells,stimulated significant release of GLP-1
same,nitric oxide (NO) release,HUVEC cells,Stimulates Nitric Oxide Release
same,significance of blood glucose lowering in OGTT,"C57BL/6J mice; Example 5, FIG. 9, 0.1 mg/g",significant
same,significance of blood glucose lowering in OGTT,"C57BL/6J mice; Example 5, FIG. 9, 0.5 mg/g",significant
same,significance of blood glucose lowering in OGTT,"C57BL/6J mice; Example 5, FIG. 9, 1 mg/g",significant
same,blood glucose in response to a glucose load (OGTT),"C57BL/6J mice; Example 5, FIG. 9, 1, 0.5 and 0.1 mg/g body weight","lower blood glucose in response to a glucose load, in a dose-dependent manner"
same,overall effect on blood glucose compared with metformin,C57BL/6J mice; Example 9,not found to be significantly different
same,overall effect on blood glucose in OGTT vs vehicle,"C57BL/6J mice; Example 9, FIG. 14, DT-110 1 mg/g, alamandine 10 mg/g, metformin 0.2 mg/g",significant
same,rise in blood glucose at 30 min in OGTT,"C57BL/6J mice; Example 9, DT-110 1 mg/g, P<0.001 vs. all other treatments",dramatically blocked the rise in blood glucose
same,effect on blood glucose compared with alamandine,"C57BL/6J mice; Example 9, P<0.001",significantly different from alamandine
"Gly-Gly-[dL] [DT-110, tripeptide glycine-glycine-D-leucine (GGdL)]","percent activation (calcium flux, GPCRProfiler), DT-110 @ 1.25 mM, Avg.",NOP,-0.1%
same,"percent activation (calcium flux, GPCRProfiler), DT-110 @ 1.25 mM, n1",NOP,-7.8%
same,"percent activation (calcium flux, GPCRProfiler), DT-110 @ 1.25 mM, n2",NOP,7.6%
same,"percent activation (calcium flux, GPCRProfiler), DT-110 @ 12.5 mM, Avg.",NOP,-2.3%
same,"percent activation (calcium flux, GPCRProfiler), DT-110 @ 12.5 mM, n1",NOP,3.4%
same,"percent activation (calcium flux, GPCRProfiler), DT-110 @ 12.5 mM, n2",NOP,-8%
same,"percent activation (calcium flux, GPCRProfiler), DT-110 @ 1.25 mM, Avg.",NK2,-9.5%
same,"percent activation (calcium flux, GPCRProfiler), DT-110 @ 1.25 mM, n1",NK2,-9.4%
same,"percent activation (calcium flux, GPCRProfiler), DT-110 @ 1.25 mM, n2",NK2,-9.6%
same,"percent activation (calcium flux, GPCRProfiler), DT-110 @ 12.5 mM, Avg.",NK2,-9.6%
same,"percent activation (calcium flux, GPCRProfiler), DT-110 @ 12.5 mM, n1",NK2,-9.5%
same,"percent activation (calcium flux, GPCRProfiler), DT-110 @ 12.5 mM, n2",NK2,-9.7%
same,"percent activation (calcium flux, GPCRProfiler), DT-110 @ 1.25 mM, Avg.",NK1,-0.9%
same,"percent activation (calcium flux, GPCRProfiler), DT-110 @ 1.25 mM, n1",NK1,-1%
same,"percent activation (calcium flux, GPCRProfiler), DT-110 @ 1.25 mM, n2",NK1,-0.9%
same,"percent activation (calcium flux, GPCRProfiler), DT-110 @ 12.5 mM, Avg.",NK1,-1.1%
same,"percent activation (calcium flux, GPCRProfiler), DT-110 @ 12.5 mM, n1",NK1,-1%
same,"percent activation (calcium flux, GPCRProfiler), DT-110 @ 12.5 mM, n2",NK1,-1.1%
same,"percent activation (calcium flux, GPCRProfiler), DT-110 @ 1.25 mM, Avg.",[1],-9.5%
same,"percent activation (calcium flux, GPCRProfiler), DT-110 @ 1.25 mM, n1",[1],-9.3%
same,"percent activation (calcium flux, GPCRProfiler), DT-110 @ 1.25 mM, n2",[1],-9.6%
same,"percent activation (calcium flux, GPCRProfiler), DT-110 @ 12.5 mM, Avg.",[1],50.2%
same,"percent activation (calcium flux, GPCRProfiler), DT-110 @ 12.5 mM, n1",[1],55.9%
same,"percent activation (calcium flux, GPCRProfiler), DT-110 @ 12.5 mM, n2",[1],44.5%
same,"percent activation (calcium flux, GPCRProfiler), DT-110 @ 1.25 mM, Avg.",MCHR2,0.5%
same,"percent activation (calcium flux, GPCRProfiler), DT-110 @ 1.25 mM, n1",MCHR2,0.1%
same,"percent activation (calcium flux, GPCRProfiler), DT-110 @ 1.25 mM, n2",MCHR2,0.8%
same,"percent activation (calcium flux, GPCRProfiler), DT-110 @ 12.5 mM, Avg.",MCHR2,-0.9%
same,"percent activation (calcium flux, GPCRProfiler), DT-110 @ 12.5 mM, n1",MCHR2,-0.8%
same,"percent activation (calcium flux, GPCRProfiler), DT-110 @ 12.5 mM, n2",MCHR2,-0.9%
same,"percent activation (calcium flux, GPCRProfiler), DT-110 @ 1.25 mM, Avg.",NMUR2,2.4%
same,"percent activation (calcium flux, GPCRProfiler), DT-110 @ 1.25 mM, n1",NMUR2,0.9%
same,"percent activation (calcium flux, GPCRProfiler), DT-110 @ 1.25 mM, n2",NMUR2,3.9%
same,"percent activation (calcium flux, GPCRProfiler), DT-110 @ 12.5 mM, Avg.",NMUR2,-0.9%
same,"percent activation (calcium flux, GPCRProfiler), DT-110 @ 12.5 mM, n1",NMUR2,0.4%
same,"percent activation (calcium flux, GPCRProfiler), DT-110 @ 12.5 mM, n2",NMUR2,-2.2%
same,"percent activation (calcium flux, GPCRProfiler), DT-110 @ 1.25 mM, Avg.",MRGX1,-1.9%
same,"percent activation (calcium flux, GPCRProfiler), DT-110 @ 1.25 mM, n1",MRGX1,-1.3%
same,"percent activation (calcium flux, GPCRProfiler), DT-110 @ 1.25 mM, n2",MRGX1,-2.5%
same,"percent activation (calcium flux, GPCRProfiler), DT-110 @ 12.5 mM, Avg.",MRGX1,-6.6%
same,"percent activation (calcium flux, GPCRProfiler), DT-110 @ 12.5 mM, n1",MRGX1,-6.7%
same,"percent activation (calcium flux, GPCRProfiler), DT-110 @ 12.5 mM, n2",MRGX1,-6.6%
same,"percent activation (calcium flux, GPCRProfiler), DT-110 @ 1.25 mM, Avg.",[2],-8.1%
same,"percent activation (calcium flux, GPCRProfiler), DT-110 @ 1.25 mM, n1",[2],-8.1%
same,"percent activation (calcium flux, GPCRProfiler), DT-110 @ 1.25 mM, n2",[2],-8%
same,"percent activation (calcium flux, GPCRProfiler), DT-110 @ 12.5 mM, Avg.",[2],54.3%
same,"percent activation (calcium flux, GPCRProfiler), DT-110 @ 12.5 mM, n1",[2],52.9%
same,"percent activation (calcium flux, GPCRProfiler), DT-110 @ 12.5 mM, n2",[2],55.7%
same,"percent activation (calcium flux, GPCRProfiler), DT-110 @ 1.25 mM, Avg.",NPBW1,0.2%
same,"percent activation (calcium flux, GPCRProfiler), DT-110 @ 1.25 mM, n1",NPBW1,1.6%
same,"percent activation (calcium flux, GPCRProfiler), DT-110 @ 1.25 mM, n2",NPBW1,-1.1%
same,"percent activation (calcium flux, GPCRProfiler), DT-110 @ 12.5 mM, Avg.",NPBW1,-0.9%
same,"percent activation (calcium flux, GPCRProfiler), DT-110 @ 12.5 mM, n1",NPBW1,-0.8%
same,"percent activation (calcium flux, GPCRProfiler), DT-110 @ 12.5 mM, n2",NPBW1,-0.9%
